The text below walks through data of patent US20180230213A1 (AVEO PHARMACEUTICALS, published 2018).

Assay [1] has as its target T1, monomeric recombinant cynomologus monkey Notch3 extracellular domain (containing EGF like domains 1-12) … (cynomologus monkey).
T1 construct: domain: EGF like domains 1-12; also called monomeric rcNotch3
The assay is described as follows: SPR BIAcore T100, antibody captured by anti-human IgG Fc, monomeric rcNotch3 analyte, 25 C. As to the method: (§1) The binding affinities and kinetics of binding of chimeric and humanized antibodies to monomeric recombinant human Notch3 extracellular domain (containing EGF like domains 1-11) fusion protein (monomeric rhNotch3) and monomeric recombinant cynomologus monkey Notch3 extracellular domain (containing EGF like domains 1-12) fusion protein (monomeric rcNotch3) were measured by surface plasmon resonance, using a BIAcore® T100 instrument (GE Healthcare, Piscataway, N.J.).
(§2) Goat anti-human IgGs (Fc fragment specific, Jackson ImmunoResearch, West Grove, Pa.) were immobilized on carboxymethylated dextran CM4 sensor chips by amine coupling, according to a standard protocol. Analyses were performed at 25 and 37° C. using PBS containing 0.05% surfactant P20 as running buffer. The antibodies were captured in individual flow cells at a flow rate of 10 μL/minute. Injection time was varied for each antibody to yield an Rmax between 30 and 60 RU. Buffer or Notch3 protein diluted in running buffer was injected sequentially over a reference surface (no antibody captured) and the active surface (antibody to be tested) for 240 seconds at 60 μL/minute. The dissociation phase was monitored for up to 900 seconds. The surface was then regenerated with two 60-second injections of 10 mM Glycine-HCl, pH 2.25, at a flow rate of 30 μL/minute. The Notch3 concentration range tested was 50 nM to 6.25 nM.
Kinetic parameters were determined using the kinetic function of the BIAevaluation software (GE Healthcare) with double reference subtraction. Kinetic parameters for each antibody, kₐ (association rate constant), kd (dissociation rate constant), and KD (equilibrium dissociation constant) were determined.
On the technique in general: SPR reads the build-up and loss of mass on a sensor chip optically.

For assay [2], the target named is T1, monomeric recombinant cynomologus …. Description: SPR BIAcore T100, antibody captured by anti-human IgG Fc, monomeric rcNotch3 analyte, 37 C. As to the method:
as §1, §2

Assay [3] concerns the target T2, monomeric recombinant human Notch3 extracellular domain (containing EGF like domains 1-11) fusion protein (human, UniProt Q9UM47 40-467).
T2 construct: domain: EGF like domains 1-11; also called monomeric rhNotch3
T2 sequence (looked up): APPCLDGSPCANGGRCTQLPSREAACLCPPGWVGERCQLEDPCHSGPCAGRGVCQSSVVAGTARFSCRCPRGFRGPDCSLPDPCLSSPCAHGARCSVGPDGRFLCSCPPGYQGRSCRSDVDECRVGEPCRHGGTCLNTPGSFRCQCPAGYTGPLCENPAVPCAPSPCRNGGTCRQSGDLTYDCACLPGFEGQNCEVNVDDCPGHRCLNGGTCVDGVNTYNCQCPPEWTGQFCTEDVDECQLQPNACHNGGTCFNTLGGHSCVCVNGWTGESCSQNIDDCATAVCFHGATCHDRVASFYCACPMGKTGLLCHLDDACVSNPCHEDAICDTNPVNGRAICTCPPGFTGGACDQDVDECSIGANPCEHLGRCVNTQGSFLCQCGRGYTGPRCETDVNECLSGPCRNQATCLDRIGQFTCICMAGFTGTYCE
Description: SPR BIAcore T100, antibody captured by anti-human IgG Fc, monomeric rhNotch3 analyte, 37 C. As to the method: as §1, §2

For assay [4], the target named is T2, monomeric recombinant human Notch3 …. Description: SPR BIAcore T100, monomeric rhNotch3 analyte, 37 C, average of Table 16 and additional measurements. As to the method: as §2

B1: Hu4F11-70 (antibody, human IgG1, kappa, V domains shown)
VH: EVQLLESGGGLVQPGGSLRLSCAASGFTFSHYDMSWVRQAPGKGLEWVSYISRGGGSTYYPDSVKGRFTISRDNSKNTLYLQMNSLRAEDTAVYYCGRHATTAYWYFDVWGQGTMVTVSS
VL: DVVMTQTPLSLSVTPGQPASISCRSSQSLVHTHGNTYLHWYLQKPGQSPQLLIYKVSNRFSGVPDRFSGSGSGTDFTLKISRVEAEDVGVYFCSQSTHVPWTFGQGTKVEIKR
notes: Humanized, human IgG1 kappa; Hv3-23 A28T S31H T62S heavy + Kv2D-29 N28H kappa
Take B1: the Kd in assay [1] stood at 5.2 nM; in assay [2], 9.1 nM; in assay [3], 3 nM; in assay [4], 7.5 nM. Moreover, the koff in assay [1] stood at 0.001 s⁻¹; in assay [2], 0.0029 s⁻¹; in assay [3], 0.0028 s⁻¹; in assay [4] it was 0.0039 s⁻¹. The association rate constant (kon) in assay [1] was 200000 M⁻¹ s⁻¹; in assay [2] it was 370000 M⁻¹ s⁻¹; in assay [3], 940000 M⁻¹ s⁻¹; in assay [4], 690000 M⁻¹ s⁻¹.

B2: Hu4F11-72 (antibody, human IgG1, kappa, V domains shown)
VH: EVQLLESGGGLVQPGGSLRLSCAASGFAFSHYDMSWVRQAPGKGLEWVSYISRGGGSTYYPDSVKGRFTISRDNSKNTLYLQMNSLRAEDTAVYYCGRHATTAYWYFDVWGQGTMVTVSS
VL: DVVMTQTPLSLSVTPGQPASISCRSSQSLVHTHGNTYLHWYLQKPGQSPQLLIYKVSNRFSGVPDRFSGSGSGTDFTLKISRVEAEDVGVYFCSQSTHVPWTFGQGTKVEIKR
notes: Humanized, human IgG1 kappa; Hv3-23 S31H T62S heavy + Kv2D-29 N28H kappa
Consider B2, for which the Kd in assay [1] was found to be 1.6 nM; in assay [2], 9.8 nM; in assay [3] it was 5.2 nM; in assay [4] it was 7 nM. The dissociation rate constant (koff) is 0.0045 s⁻¹ in assay [1], 0.0032 s⁻¹ in assay [2], 0.00094 s⁻¹ in assay [3] and 0.0069 s⁻¹ in assay [4]. Moreover, the on-rate constant (kon) was found to be 2.8e+06 M⁻¹ s⁻¹ in assay [1], 440000 M⁻¹ s⁻¹ in assay [2], 180000 M⁻¹ s⁻¹ in assay [3] and 710000 M⁻¹ s⁻¹ in assay [4].

B3: Hu4F11-32 (antibody, human IgG1, kappa, V domains shown)
VH: EVQLLESGGGLVQPGGSLRLSCAASGFAFSSYDMSWVRQAPGKGLEWVSYISRGGGSTYYPDTVKGRFTISRDNSKNTLYLQMNSLRAEDTAVYYCGRHATTAYWYFDVWGQGTMVTVSS
VL: DVVMTQTPLSLSVTPGQPASISCRSSQSLVHTNGNTYLHWYLQKPGQSPQLLIYKVSNRFSGVPDRFSGSGSGTDFTLKISRVEAEDVGVYFCSQSTHVPWTFGQGTKVEIKR
notes: Humanized, human IgG1 kappa; Sh4F11 Hv3-23 heavy + Hu4F11 Kv2D-29 kappa
For B3, the Kd in assay [1] worked out at 18 nM; in assay [2], 32 nM; in assay [3] it was 2.7 nM; in assay [4], 7.6 nM. The koff in assay [1] is 0.0075 s⁻¹; in assay [2], 0.016 s⁻¹; in assay [3], 0.0046 s⁻¹; in assay [4], 0.084 s⁻¹. Moreover, the kon in assay [1] worked out at 790000 M⁻¹ s⁻¹; in assay [2] it was 500000 M⁻¹ s⁻¹; in assay [3] it was 1.7e+06 M⁻¹ s⁻¹; in assay [4], 7.4e+06 M⁻¹ s⁻¹.

B4: Hu4F11-75 (antibody, human IgG1, kappa, V domains shown)
VH: EVQLLESGGGLVQPGGSLRLSCAASGFTFSSYDMSWVRQAPGKGLEWVSYISRGGGSTYYPDSVKGRFTISRDNSKNTLYLQMNSLRAEDTAVYYCGRHATTAYWYFDVWGQGTMVTVSS
VL: DVVMTQTPLSLSVTPGQPASISCRSSQSLVHTYGNTYLHWYLQKPGQSPQLLIYKVSNRFSGVPDRFSGSGSGTDFTLKISRVEAEDVGVYFCSQSTHVPWTFGQGTKVEIKR
notes: Humanized, human IgG1 kappa; Hv3-23 A28T T62S heavy + Kv2D-29 N28Y kappa
Turning to B4, the Kd in assay [1] was 3.7 nM; in assay [2] it was 24 nM; in assay [3], 3.4 nM; in assay [4], 10 nM. The off-rate constant (koff) in assay [1] was determined as 0.0026 s⁻¹; in assay [2] it was 0.0089 s⁻¹; in assay [3], 0.009 s⁻¹; in assay [4], 0.013 s⁻¹. The kon is 720000 M⁻¹ s⁻¹ in assay [1], 380000 M⁻¹ s⁻¹ in assay [2], 2.7e+06 M⁻¹ s⁻¹ in assay [3] and 1.7e+06 M⁻¹ s⁻¹ in assay [4].

B5: Hu4F11-71 (antibody, human IgG1, kappa, V domains shown)
VH: EVQLLESGGGLVQPGGSLRLSCAASGFTFSSYDMSWVRQAPGKGLEWVSYISRGGGSTYYPDSVKGRFTISRDNSKNTLYLQMNSLRAEDTAVYYCGRHATTAYWYFDVWGQGTMVTVSS
VL: DVVMTQTPLSLSVTPGQPASISCRSSQSLVHTHGNTYLHWYLQKPGQSPQLLIYKVSNRFSGVPDRFSGSGSGTDFTLKISRVEAEDVGVYFCSQSTHVPWTFGQGTKVEIKR
notes: Humanized, human IgG1 kappa; Hv3-23 A28T T62S heavy + Kv2D-29 N28H kappa
For the molecule B5, the Kd in assay [1] came to 2.7 nM; in assay [2], 14 nM; in assay [3], 3 nM; in assay [4], 9.2 nM. For the same molecule, the off-rate (koff) in assay [1] came to 0.004 s⁻¹; in assay [2], 0.0056 s⁻¹; in assay [3] it was 0.0037 s⁻¹; in assay [4], 0.0095 s⁻¹. Further, the kon in assay [1] turned out to be 1.5e+06 M⁻¹ s⁻¹; in assay [2], 410000 M⁻¹ s⁻¹; in assay [3], 1.2e+06 M⁻¹ s⁻¹; in assay [4], 1.1e+06 M⁻¹ s⁻¹.

B6: Hu4F11-69 (antibody, human IgG1, kappa, V domains shown)
VH: EVQLLESGGGLVQPGGSLRLSCAASGFTFSNYDMSWVRQAPGKGLEWVSYISRGGGSTYYPDSVKGRFTISRDNSKNTLYLQMNSLRAEDTAVYYCGRHATTAYWYFDVWGQGTMVTVSS
VL: DVVMTQTPLSLSVTPGQPASISCRSSQSLVHTHGNTYLHWYLQKPGQSPQLLIYKVSNRFSGVPDRFSGSGSGTDFTLKISRVEAEDVGVYFCSQSTHVPWTFGQGTKVEIKR
notes: Humanized, human IgG1 kappa; Hv3-23 A28T S31N T62S heavy + Kv2D-29 N28H kappa
Turning to B6, the equilibrium dissociation constant (Kd) in assay [1] worked out at 7.7 nM; in assay [2] it was 11 nM; in assay [3] it was 2.9 nM; in assay [4], 8.5 nM. Besides, the koff came out at 0.00094 s⁻¹ in assay [1], 0.0038 s⁻¹ in assay [2], 0.0038 s⁻¹ in assay [3] and 0.0037 s⁻¹ in assay [4]. In addition, the kon in assay [1] is 120000 M⁻¹ s⁻¹; in assay [2], 400000 M⁻¹ s⁻¹; in assay [3], 1.3e+06 M⁻¹ s⁻¹; in assay [4] it was 710000 M⁻¹ s⁻¹.

B7: Hu4F11-74 (antibody, human IgG1, kappa, V domains shown)
VH: EVQLLESGGGLVQPGGSLRLSCAASGFTFSHYDMSWVRQAPGKGLEWVSYISRGGGSTYYPDSVKGRFTISRDNSKNTLYLQMNSLRAEDTAVYYCGRHATTAYWYFDVWGQGTMVTVSS
VL: DVVMTQTPLSLSVTPGQPASISCRSSQSLVHTYGNTYLHWYLQKPGQSPQLLIYKVSNRFSGVPDRFSGSGSGTDFTLKISRVEAEDVGVYFCSQSTHVPWTFGQGTKVEIKR
notes: Humanized, human IgG1 kappa; Hv3-23 A28T S31H T62S heavy + Kv2D-29 N28Y kappa
As for B7, the Kd in assay [1] was found to be 2.8 nM; in assay [2] it was 12 nM; in assay [3], 3.9 nM; in assay [4] it was 10 nM. The koff was found to be 0.0025 s⁻¹ in assay [1], 0.0045 s⁻¹ in assay [2], 0.0022 s⁻¹ in assay [3] and 0.0051 s⁻¹ in assay [4]. In addition, the kon stood at 900000 M⁻¹ s⁻¹ in assay [1], 440000 M⁻¹ s⁻¹ in assay [2], 560000 M⁻¹ s⁻¹ in assay [3] and 490000 M⁻¹ s⁻¹ in assay [4].

B8: Hu4F11-73 (antibody, human IgG1, kappa, V domains shown)
VH: EVQLLESGGGLVQPGGSLRLSCAASGFTFSNYDMSWVRQAPGKGLEWVSYISRGGGSTYYPDSVKGRFTISRDNSKNTLYLQMNSLRAEDTAVYYCGRHATTAYWYFDVWGQGTMVTVSS
VL: DVVMTQTPLSLSVTPGQPASISCRSSQSLVHTYGNTYLHWYLQKPGQSPQLLIYKVSNRFSGVPDRFSGSGSGTDFTLKISRVEAEDVGVYFCSQSTHVPWTFGQGTKVEIKR
notes: Humanized, human IgG1 kappa; Hv3-23 A28T S31N T62S heavy + Kv2D-29 N28Y kappa
B8: the Kd is 2.6 nM in assay [1], 15 nM in assay [2], 5.9 nM in assay [3] and 11 nM in assay [4]. Moreover, the koff in assay [1] was 0.0019 s⁻¹; in assay [2] it was 0.0063 s⁻¹; in assay [3], 0.0013 s⁻¹; in assay [4] it was 0.0046 s⁻¹. The kon is 760000 M⁻¹ s⁻¹ in assay [1], 500000 M⁻¹ s⁻¹ in assay [2], 210000 M⁻¹ s⁻¹ in assay [3] and 490000 M⁻¹ s⁻¹ in assay [4].

As usually defined, the Kd is the constant that tells how readily two partners part at equilibrium. The koff is a measure of how fast the partners let go of each other. The kon is the rate constant with which the complex forms.
